Measurements reported in a protein production outcome set (Wang et al. 2014).

Assay: label from the status in PepcDB records
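Also: failed if final PepcDB status was selected cloned or expressed and not failed if soluble or beyond.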

Row | Sequence | protein production
1 | MESLIGLVNRIQRACTVLGDYGGGTGSNAFNSLWEALPTVAVVGGQSSGKSSVLESIVGRDFLPRGSGIVTRRPLVLQLHKTDDGTEEYAEFLHLPKKQFTDFALVRREIQDETDRITGKNKQISPVPIHLSIYSPNVVNLTLIDLPGLTKVAVEGQPETIAEDIESMVRTYVDKPNCIILAISPANQDIATSDAIKLAKDVDPTGERTFGVLTKLDLMDKGTNALEVLEGRSYRLQHPWVGIVNRSQADINKNVDMMLARRKEREYFDTSPDYGHLASKMGSEYLAKLLSKHLESVIRTRIPSILSLINKSIEELERELDRMGRPVAVDAGAQLYTILEMCRAFDKIFKEHLDGGRPGGDRIYGVFDNQLPAALKKLPFDRHLSLQSVKKIVSEADGYQPHLIAPEQGYRRLIEGALGYFRGPAEASVDAVHYVLKELVRKSISETEELKRFPSLQVELAAAANSSLEKFREESKKSVIRLVDMESAYLTAEFFRKLPQEIERPVTNSKNQTASPSSATLDQYGDGHFRRIASNVSAYVNMVSDTLRNTIPKACVYCQVRQAKLALLNYFYSQISKREGKQLGQLLDEDPALMDRRLECAKRLELYKKARDEIDAVAWVR | failed
2 | MASEREQISRKVALIALIANLILMAGKVFFGLVGDSEAVFADGIHSAADVVASIAVLAVIGISNKPPDQDHPFGHGKAEVISEAIVGIILVIVSVYILIEAILSFVKGPSVPQYSALFAALISYVAKEILYRYSIKQGKKWNSKAIIAIAYDHKGDIVASLAAFIGVLLAIIGNSRGWSYLLYADAIASAIVAYLIFKISMELIRPSVGVLMEKSVDPELIEEYKAVIFQCDQVKRIDRIRAREHGHYKLLDVRLSLDHDLTIKQGHDIAREIRNEIKRQFSDVEEVLIHVNPYFEE | failed
3 | MDGASRENPGLAAAGGAVRDGNENWVGVFALNIEICSAPLAELWGLYYGLHIVWEQGITRLELEVDSKIVVGFLQTGIPDSHPLSFLLRLCYGFISRDWLVRISHVYREVNRLADGLANYAFSLPLGLYVFNSVPDSIASFVLEDARMLEEYRMKFWLLEDLGLRHCGNVKANGFHRVSAYPREKSHGRHRLYVLHY | failed
4 | AIDVSAKSAIIIDGASGRVLYAKDEHQKRRIASITKIMTAVLAIESGKMDQTVTVSANAVRTEGSAIYLTEGQKVKLKDLVYGLMLRSGNDAAVAIAEHVGGSLDGFVYMMNQKAEQLGMKNTRFQNPHGLDDHENHYSTAYDMAILTKYAMKLKDYQKISGTKIYKAETMESVWKNKNKLLTMLYPYSTGGKTGYTKLAKRTLVSTASKDGIDLIAVTINDPNDWDDHMKMFNYVFEHYQTYLIAKKGDIPKLKGTFYESKAFIKRDITYLLTEEEKENVKINTTLLKPKKAWEKDASKIPDIVGHMEIMFNDATIAKVPIYYENERHQK | not failed
5 | MIIGLLNQKGGVGKTTLSVNLAASFARTGARVLLIDVDPQGSALDWAAAREGAPLFPVVGLPRATVHKEITQIGHNYDHIIIDGPPRVTDLARSALMASDFVLIPVQPSPYDIWAADGIVKLIDEARVYKENLKSAFVINRKIVNTAIGRDVGEALGVYPVHVLSANVAQRVIFAEAATQGKTVYEVDKQGLAAAEIEAVAAEIKELAQLEHHHHHH | not failed
6 | MIVFYDSWCPMCTAVAERTKKLDKKGKVKFVSFRDEDVVEKYELSQELQSKMEQRLYIFKNNKWYDGIHSIHVLAKSIPSYWFAVPFIKLSIVLGFGNKVYDYIANNRKLVPVGHCRGGVCEIPTKK | failed
7 | MNIILLSGKKSEAQPGDGEYPEYLCEYNGKPLIHTLIDNCAALEPRRIICTFSNDDVIGLHLRNMVQQMHPSASVLPVHNITQGAACTALLASGQIDNDDELLILSVSDFLDIELREVLRVFREANEDAGVVIFNSLHPRYSFARLDSDQRVIEAAEKNPISPHAIAGMYWFKSGSLFVSAAKEMIRKDARVNDHFYIAPALNELVLLHKKIGAYRIEPRQYRPLKTQNQLHAFEMADIR | failed
8 | MNEFETLLNSVEDVKVRDVVKGEILSVENGQATVAIVGTGVEGVLTLREITNDKDADINTFVKPGDVLDLLVIKQIVGKEAEGANVYLLSLKRLEARKAWTQLEGKEGEIVTVKVTKDVKGGLSVDYNGVRGFIPASMIDTYFVKDTKKFVGEEIEAKIIEVNASENRFILSRRAVVEAEAIEMRKEAFAQLQEGDIVEGTVSRVTNFGAFVDLGGIDGLVHVSELSHSRIKRPSDAVKPGDVVNVKILKLDPEAGRLSLSLKATQPGPWEQVEEKAPVGSTVEGTVKRLTDFGAFVELYPGVEGLVHVSQISWERVENPKDVLKVGQVVNVKVLDVKPAEERISLSIKALEEAPARPARNNDNDGEKRDRKPRAPRKAAKPSYDLPETQEGFSLADFLGEDFDINDLLEHHHHHH | not failed
9 | MTASIFSGVIPALMTPCRQDRTPDFDALVRKGKELIADGMSAVVYCGSMGDWPLLTDEQRMEGVERLVKAGIPVIVGTGAVNTASAVAHAVHAQKVGAKGLMVIPRVLSRGSVIAAQKAHFKAILSAAPEIPAVIYNSPYYGFATRADLFFALRAEHKNLVGFKEFGGPADMRYAAENITSRDDEVTLMIGVDTAVVHGFVNCGATGAITGIGNVLPKEVIHLCKLSQAAAKGDADARARALELEQALAVLSSFDEGPDLVLYFKYMMVLKGDKEYTLHFNETDALTDSQRGYVEAQFKLFNSWYADWSKLPGAVQTCKAA | not failed
10 | MRLPRQIRLPHLRDIGALLTDSAREWSRHRASSKGAALSLYMVFSLAPMLILVIAVAGAFFGEEAVRSELFSQVRDLTGERGAEVIQTVLASAHESGSGWLAALLSICVLVFSATTAFAELKASLDELWDVKEDKSGLQGLVRSRMLSFGLVLVLALFLLLSLTLNAALGAAKGYYGDLWSTSAFAMAADWLSNLFSFAVVTALFAVVYKLLPSKRIPWLDVIPGAIVTAALFLAGKWGIGLYLERGTAVSAYGAAGSLIALLLWIYYSAQIFFFGAVFTRQFAERFGNLRRAAPA | not failed
11 | MYPYIKLIATLFRAKNSPQMNLDEKSVLNCRAGLTDIDVFVELNNARHLTYMEFGRWDFAQRTGLLSLMRKNKWAFAVGGASVRYRRRIAFWKKFTVTTQVICHDGRWFYFLQETHIKDKVCSSALIKAAFTSKQGLVPATEVLAAYGKTTPNFDVPDWVNAWIDAESQRPWPLEHHHHHH | not failed
12 | MYKLGVFLLATLLSANTQKVSDIAKDIQHKETLLKKTHEEKNQLNSRLSSLGEAIRSKELQKAEMERQMIALKKSLEKNRNESLAQEKVLTNYRKSLDHLQKKRSFLQKRVFDTLLQDFLFSQALKGQNLASSNDVVLQVAFENLHQSTLSKMSQLSQEEKELNTQALKVKNSIQKISSIIDEQKTREVTLKSLKTEQDKLILSMQKDYAIYNQRLTLLEKERQNLNALLKRLNIIKQNRENEEKVSLKKSSQALEVKQVASSYQNINTTSYNGPKTIAPLNDYEVVQKFGPYIDPVYNLKIFSESITLVSKTPNALVRNVLDGKIVFAKEINMLKKVVIIEHKNGIRTIYSQLDKIAPTIKSGMRIQKGYVLGRIDQRLGFEVTMREKHINPLELIARN | failed
13 | MTWLLIFASLAYVIFLFAVATWGDRLGSWANKISHKPVVYSMSLAIYCTSWTYYGAVGNAAVDGWAFFPILLGPILLFLFGIRILEKLVSVSKQQNITSIADFISSRFGKRRRLAVAVTAIAAVAIIPYIALQLKAVGISFAVLTESSGVMAQFSIKELGAAALMAIFAMLFGTRHVEVTEYRSGMILAIAVESMIKLVALLAAGVFAWFLIQGDAQSDLFSSFSDATKPQWSFAAFGEFEFIVQTLMAAGAILCLPRQFHVAVVDNVDVRHLRTARWGFPLYLALTAAAIVPIAIAGTFYLSATTDGSTFALQLPLLKDQLWLSLVIFIGGISAATAMVIIASVTLSTMITNDVIMPILLQRESRLPLKHRRREYDRALLLIRRVAIAVTMVLSFLCYYFWAARTNLVSIGLLAFSLVLQLLPALLAALYWRKGHARGVYAGLAAGSVGWVLAVLIPLYTDLQLTDVEIITRGTVVSLALNCFGFIVFSLLAKPRLVDRIQATAFVKPRAALPDLHFNKNDSATNADMLLLLRTFLGAERAQQLMQYYQRPENTELPLEGVAEKTFISFVERAIAGVLGSATARSLVDAALRDKQLNLEEVVHFFDDTTQALQTQQSILFSSLENLAQGISVVDAELRLVAWNKRYMDLFQYPEGMVKPGQPIATLIRYNAERGECGPGDVDGLVNKRLRYMQLGSAHRFIRRRADGRVIEMVGNPLPTGGFVTSFTDITSHVETQQALEDANIDLEQRVDVRTQEIREINQELTAEIDRRRQVEDELKKAKAEAEATNASKTRFLALASHDILQPLNAARLYLSAIQEKELSERNLSLVGKLDTALGSTEHLLSTLLSIAKMDQGALKPQFRHVQLSSLLEPLVEEYAVLAEQRKLDFRAFYKDRPVYTDPTYLRRIVQNFLSNAIKYTQRGSVLLGVRKRGDELQIAVWDTGPGIAAQQQNKVFDAFYRVQNQTVDGVGLGLSVAQRMGEQLNCDVQVESVEGKGSCFSVRVPLGNAAQVVSRPKKQLEDALSDPLQLIVVDDDNENLSALSALLNKWGCEALTFNRYSKALAYAKAHSQNKAPHGLLLDYQLGDGDGLQLAQELRDIWQQQIPAALVTAMRDDAVKQAARKSGLQFLPKPAKPAALKAFLKYISTRKAGGARS | failed
14 | MNLHTKTWVQRLPVPIDVAWDFFSQPGNLARITPPEMMLKAEGGNAGTAIYEGMKLNFVLYPFMMIPVRWTTEIMKVSKPDFFEDRQLSGPYEQWYHRHLFRDIEGGTEMTDIVEYALPFDLFGEVVEALIVGPRLDEVFEYRRCRVAEILGEMASETRLEHHHHHH | not failed
15 | MVMEYELRTPLVKDQILKLKVGDVVYITGEIFTARDEAHARALEWMEEGKELPFSFDKGVVYHCGPLVKKNDEWRVVSAGPTTSARMNPFTPKILEKVECMGIIGKGGMSEEVVEAMRGKAAYFAFTGGAGALAAMSIKKVKGVVWEDLGMPEAVWLLEVERFGPCIVAIDAHGNSLYRR | not failed
16 | ASLLARYPPEKLFQAERNFNAAQDLDVSLLEGDLVGVIKKKDPMGSQNRWLIDNGVTKGFVYSSFLKPYNPRRSHSDAS | not failed
17 | MKEIVERVKTKTKIPVYERSVENVLSAVLASDDIWRIVDLSEEPLPLVVAILESLNELGYVTFEDGVKLTEKGEELVAEYGIGKRYDFTCPHCQGKTVDLQAFADLLEQFREIVKDRPEPLHEFDQAYVTPETTVARVILMHTRGDLENKDIFVLGDDDLTSIALMLSGLPKRIAVLDIDERLTKFIEKAANEIGYEDIEIFTFDLRKPLPDYALHKFDTFITDPPETLEAIRAFVGRGIATLKGPRCAGYFGITRRESSLDKWREIQKLLLNEFNVVITDIIRNFNEYVNWGYAEETRAWKLIPIKKLPEYNWYKSYMFRIETLEGSRGYEDEIPEEDIYNDEESST | not failed
18 | MATETLTKSDAITQSLRAAVDRNFNDQVAFLQRMVQFRSVRGEEAPQQEWLAQQFADRGYKVDTFSLADVDIASHPKAAPMDTIDPAGSMQVVATADSDGKGRSLILQGHIDVVPEGPVDLWSDPPYEAKVRDGWMIGRGAQDMKGGVSAMIFALDAIRTAGYAPDARVHVQTVTEEESTGNGALSTLMRGYRADACLIPEPTGHTLTRAQVGAVWFRLRVRGTPVHVAYSETGTSAILSAMHLIRAFEEYTKELNAQAVRDPWFGQVKNPIKFNVGIIKGGDWASSTAAWCELDCRLGLLTGDTPQEAMRGIEKCLADAQATDSFLSENPAELVWSGFQADPAVCEPGGVAEDVLTAAHKAAFNAPLDARLSTAVNDTRYYSVDYGIPALCYGPYGQGPHAFDERIDLESLRKTTLSIALFVAEWCGLRKL | not failed
19 | MKSILSLFSGIGGLCHHGIAAAGLSHKFQVKQFVEISPYSQSRLRHEQPQTPIHSDITTYHCHRGQFDIVAGGLPCQGTSNAGNRQGLDDPRSALWAEQFRIIESDRPAIALIENPTGLLYRGLEQIICDLDSIGYMGEWNCISAQQVGLPHQRKRIFIIAYSNGLFNQVVPAPWSNQIGNHITQVRLSLETRSYQPGISKVASRIPIGVAKNIPGNYDARRAYGLSCSPRQAAVAWKRIDYLCSLLSYQEAS | failed
